± gives the standard deviation of the averaged measurements.

These results are taken from the supplement of paper PMC10126150.
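Also: ATP exposure 15 min at 22 °C before imaging.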

For this data set, the system named is ATP. Briefly: switch fluorescence ratio, 500 uM ATP over buffer (Cy3 cluster intensity, sum of 5 cycles each) (fold (ratio)); higher = stronger signal-on switching upon ATP binding; sequences stand for … in TCGTCGGCAGCGTCAGATGTGTATAAGAGACAGTTTTTTTTTTTTTTTTTTTTTTTTT…TC. The note with it: aptamer strand: ATP DNA aptamer (quencher-CACCTGGGGGAGTATTGCGGAGGAAGG + anchor), 100 nM annealed; ATP concentration: 500 uM. The procedure, abridged: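 Clusters carrying Cy3-labelled switching strands on a modified Illumina MiSeq flow-cell were annealed to 100 nM quencher-labelled ATP aptamer and imaged in selection buffer. They were imaged again after 15 min with 500 uM ATP at 22 °C, over five buffer/ATP cycles with NaOH stripping and re-annealing in between. For each cluster, the fluorescence ratio is the summed Cy3 intensity of the target cycles divided by that of the buffer cycles, averaged per switch-domain sequence. Clusters outside 100-1000 RFU were left out.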
Regarding AGGGGCCGGT, the switch fluorescence ratio was 1.01 ± 0.014.

In the case of TTAGGTTCAG, the switch fluorescence ratio amounted to 0.9774 ± 0.0084.

As for GGCTTGCAAC, the switch fluorescence ratio was found to be 1.03 ± 0.012.

For GGGGGGATCA, the switch fluorescence ratio was 0.985 ± 0.026.

As to ACGCGGGTTT, the switch fluorescence ratio came to 1.02 ± 0.02.

Consider GGCTTGAGGG, for which the switch fluorescence ratio turned out to be 0.942 ± 0.033.

In the case of GGTTACGAAG, the switch fluorescence ratio came out at 1.01 ± 0.044.

For CCATGGGTGC, the switch fluorescence ratio stood at 1.34 ± 0.024.

GCTTAATACT: the switch fluorescence ratio is 1.37 ± 0.054.

As for TTAGTTATTC, the switch fluorescence ratio worked out at 1.022 ± 0.0032.

As to CCAGGGGGGA, the switch fluorescence ratio came out at 1.18 ± 0.048.

For the sequence CCTGGGGCCA, the switch fluorescence ratio was 1.03 ± 0.038.

Regarding AAGTTGTTAT, the switch fluorescence ratio was determined as 0.986 ± 0.045.

Regarding GATTTTGTAG, the switch fluorescence ratio was 1.01 ± 0.028.

Consider CTGGTTTGGA, for which the switch fluorescence ratio was 1 ± 0.022.

For TTTGGAGGGC, the switch fluorescence ratio turned out to be 1.06 ± 0.065.

On to ACTTTGTTGC, for which the switch fluorescence ratio turned out to be 1.01 ± 0.0079.

With TGCGACATGT, the switch fluorescence ratio is 0.969 ± 0.027.

Take GGGGAATTGT: the switch fluorescence ratio stood at 1.02 ± 0.056.

GGAGTTGTTA: the switch fluorescence ratio is 0.985 ± 0.013.

Turning to CAGGGGGGAT, the switch fluorescence ratio is 1.04 ± 0.067.

Turning to AGTGAGTGTA, the switch fluorescence ratio came to 0.979 ± 0.015.

In the case of GAAAATTGGT, the switch fluorescence ratio was determined as 0.997 ± 0.023.

On to GTTTTAGGGT, for which the switch fluorescence ratio amounted to 1 ± 0.031.

As to TCTGTAAGGT, the switch fluorescence ratio was 0.986 ± 0.02.

Turning to GCATGACTGT, the switch fluorescence ratio is 1.01 ± 0.024.

On to TTTAGGGATG, for which the switch fluorescence ratio came out at 0.989 ± 0.0088.

Take GATGGGGTCC: the switch fluorescence ratio is 0.949 ± 0.015.

Consider AGCGCCAGGG, for which the switch fluorescence ratio came out at 1.13 ± 0.035.

CATTCGTCGC: the switch fluorescence ratio turned out to be 1.12 ± 0.026.

Consider TGGGTAATCA, for which the switch fluorescence ratio came to 0.981 ± 0.036.

For GGCTTTGAGT, the switch fluorescence ratio is 0.9873 ± 0.0066.

For TTTTTATCAA, the switch fluorescence ratio was found to be 1.01 ± 0.041.

Regarding GGGAATGTAA, the switch fluorescence ratio amounted to 0.973 ± 0.036.

In the case of TGGGTGCGCG, the switch fluorescence ratio worked out at 1.014 ± 0.0063.

Turning to TACGGTAAAA, the switch fluorescence ratio stood at 0.986 ± 0.044.

For TTATAAGGAA, the switch fluorescence ratio worked out at 0.981 ± 0.015.

GGGGTACATG: the switch fluorescence ratio was found to be 1.022 ± 0.0055.

Consider TTACTTAAAA, for which the switch fluorescence ratio is 0.988 ± 0.04.

With ATAATTACTT, the switch fluorescence ratio came out at 1.01 ± 0.018.

With AGATACTTGA, the switch fluorescence ratio was determined as 1.01 ± 0.014.

On to ATGAGGCATT, for which the switch fluorescence ratio came to 1.04 ± 0.016.

With CATGATACGG, the switch fluorescence ratio turned out to be 1.03 ± 0.011.

Take TTTTCCGGTT: the switch fluorescence ratio was determined as 1.23 ± 0.42.

Take AGAATTGTAC: the switch fluorescence ratio came to 1.05 ± 0.014.

As to TTGACGTAAA, the switch fluorescence ratio was 1.61 ± 0.56.

In the case of TAAAGCTTAA, the switch fluorescence ratio stood at 1.05 ± 0.041.

For TCGGATAAGA, the switch fluorescence ratio came out at 0.995 ± 0.048.

As to TGTTCCGGAC, the switch fluorescence ratio is 1.023 ± 0.0058.

With TACCTTGGGC, the switch fluorescence ratio came to 1.04 ± 0.046.

ATCAAAATTG: the switch fluorescence ratio was 1.01 ± 0.027.

Consider GAGGTGGTTA, for which the switch fluorescence ratio amounted to 0.976 ± 0.015.

As to GTGGGGAGTT, the switch fluorescence ratio is 0.99 ± 0.023.

With GAGCGAGGAA, the switch fluorescence ratio turned out to be 0.98171 ± 0.00093.

On to TTAGCAGCGC, for which the switch fluorescence ratio is 1.01 ± 0.055.

Take ATGTCTTGAT: the switch fluorescence ratio came out at 0.963 ± 0.014.

Take GAATGTTCGG: the switch fluorescence ratio was 0.999 ± 0.051.

For the sequence TGGTTTTTCC, the switch fluorescence ratio is 1.11 ± 0.12.

As for ATGTATAGCC, the switch fluorescence ratio turned out to be 0.995 ± 0.036.

GGAGTACGGC: the switch fluorescence ratio turned out to be 1.06 ± 0.052.

As to ATCTATGATA, the switch fluorescence ratio turned out to be 0.954 ± 0.011.

As for ATGTAACATG, the switch fluorescence ratio turned out to be 1 ± 0.027.

On to CGGAAACAAA, for which the switch fluorescence ratio was determined as 1.01 ± 0.075.

Take TCTGAAAACT: the switch fluorescence ratio was determined as 1.06 ± 0.0013.

Take CCTGTTGGGA: the switch fluorescence ratio came to 1.01 ± 0.037.

TTCTATAATT: the switch fluorescence ratio stood at 1.03 ± 0.02.

Turning to TTTGTGTCAA, the switch fluorescence ratio was found to be 1.01 ± 0.04.

For GATCATAGGG, the switch fluorescence ratio is 1.01 ± 0.018.

With AGTTTTGGTG, the switch fluorescence ratio turned out to be 0.985 ± 0.01.

Take GTTTGTGTAC: the switch fluorescence ratio was determined as 1.11 ± 0.075.

TGGTTCGAGA: the switch fluorescence ratio came to 0.979 ± 0.025.

Take CATTATGGGA: the switch fluorescence ratio was found to be 1.009 ± 0.0063.

Turning to CATGGGTTCG, the switch fluorescence ratio came to 1 ± 0.0066.

TACGGGAGTC: the switch fluorescence ratio came out at 1.06 ± 0.16.

Regarding TAAGTGAGAA, the switch fluorescence ratio is 0.983 ± 0.038.

Turning to TTAGATATGG, the switch fluorescence ratio is 1.02 ± 0.026.

TCAAGGCACC: the switch fluorescence ratio came to 1.1 ± 0.023.

With AGGTTGTGCG, the switch fluorescence ratio was found to be 1 ± 0.042.

In the case of TCGGAGCTTA, the switch fluorescence ratio was found to be 2.977 ± 0.018.

For the sequence TCTGAACAGG, the switch fluorescence ratio is 1.03 ± 0.014.

In the case of CATGTCTGCT, the switch fluorescence ratio is 0.9777 ± 0.0032.

Regarding TGGGATACGG, the switch fluorescence ratio is 1.61 ± 1.

In the case of GGATAGGGGG, the switch fluorescence ratio is 0.9963 ± 0.0012.

Take AGGAAATTTG: the switch fluorescence ratio is 0.994 ± 0.031.

As for TCAGGACTCG, the switch fluorescence ratio was 0.982 ± 0.035.

Take AATAAAAGAT: the switch fluorescence ratio worked out at 1 ± 0.017.

GTGATTGCGG: the switch fluorescence ratio is 1.02 ± 0.069.

Regarding GGGGCTTATG, the switch fluorescence ratio was 0.968 ± 0.0079.

Regarding TTGGAGTGTT, the switch fluorescence ratio came out at 0.999 ± 0.026.

Turning to GGCTTTTAAC, the switch fluorescence ratio is 0.9827 ± 0.0013.

For the sequence TCGGTTGAAG, the switch fluorescence ratio is 0.988 ± 0.017.

On to AAGCCTGGTG, for which the switch fluorescence ratio amounted to 1.6 ± 0.063.

Turning to AGGGGAATGT, the switch fluorescence ratio was determined as 0.979 ± 0.026.

On to GGTGTGAGTG, for which the switch fluorescence ratio came to 0.973 ± 0.025.

In the case of AGGGCAAGTT, the switch fluorescence ratio came out at 1.01 ± 0.064.

As for TCGGGGGGTA, the switch fluorescence ratio was 0.985 ± 0.021.

In the case of GCTCTGGGGA, the switch fluorescence ratio came out at 1.07 ± 0.12.

Regarding CGTGGTGGCT, the switch fluorescence ratio is 0.989 ± 0.12.

With AAGAGGTTTG, the switch fluorescence ratio was 0.949 ± 0.013.

In the case of CGCACGAGGC, the switch fluorescence ratio amounted to 1.23 ± 0.05.

In the case of TTGGGGGAAA, the switch fluorescence ratio was determined as 1 ± 0.02.

As to ACATGCACGG, the switch fluorescence ratio came out at 1.268 ± 0.0013.

GATACGAACG: the switch fluorescence ratio amounted to 1.32 ± 0.043.

Regarding GGGCTAGGTA, the switch fluorescence ratio was 1.01 ± 0.0074.

As to AGGTGGTGGG, the switch fluorescence ratio came to 1.01 ± 0.014.

On to TTTAAACGGT, for which the switch fluorescence ratio came to 1.03 ± 0.042.

In the case of ACATCAGAAT, the switch fluorescence ratio was 1.01 ± 0.028.

With GACTTATCCT, the switch fluorescence ratio was found to be 1.054 ± 0.004.

Regarding CGAATAATCA, the switch fluorescence ratio was 0.982 ± 0.053.

CTGGGGCAGA: the switch fluorescence ratio was 1.02 ± 0.011.

Regarding TAAGATTGTT, the switch fluorescence ratio is 1.02 ± 0.017.

Take ATGAGGAAGT: the switch fluorescence ratio came out at 0.987 ± 0.023.

Regarding ATGCTTATGG, the switch fluorescence ratio came out at 0.994 ± 0.037.

TTTCGATTGT: the switch fluorescence ratio was 0.988 ± 0.024.

As for TTGAGCAGCT, the switch fluorescence ratio turned out to be 1.08 ± 0.085.

As to AGTTTTCTTC, the switch fluorescence ratio came out at 0.962 ± 0.041.

Consider TTTTTATTTC, for which the switch fluorescence ratio came out at 1 ± 0.019.

As to CTGGCTACGG, the switch fluorescence ratio was 1.01 ± 0.032.

Take ATTTTAGCGT: the switch fluorescence ratio was 0.9958 ± 0.0062.

With AATGTTATTG, the switch fluorescence ratio was 0.99833 ± 0.00099.
